Earlier results, collected in paper PMC4317059.

Legend:
[1] = target: Asp143 (UniProt position 144, GNAGSDLACGV); test: kinetics
[2] = target: Glu143 (UniProt position 144, GNAGSELACGV); test: kinetics

Substance | pKa [1] | pKa [2]
Cu,Zn superoxide dismutase (SOD1) Arg143Asp mutant (Homo sapiens; R143D) | ca. 6.2 | –
Cu,Zn superoxide dismutase (SOD1) Arg143Glu mutant (Homo sapiens; R143E) | – | ca. 6.2
